Non-standard residues stand in square brackets, D forms with d. No end group written: not given here.
Tests used:
[1] = biological target: T1, biotinylated Aβ^1-42 peptide (Homo sapiens, UniProt P05067); experiment: Direct ELISA: plate-immobilised capture peptide probed with biotinylated Aβ1-42; format: binding; details: 1 μg/well capture peptide, 1 μg/ml biotinylated Aβ, 2 hours; compared with scrambled or irrelevant control peptide (FIG. 1a)
T1 construct: purchased
Experimental: (§1) FIG. 1a graphically illustrates binding of biotinylated Aβ^1-42 and biotinylated Aβ^1-40 peptide (SEQ ID NO: 2) by RI peptide. 96-well plate was coated with the capture peptide (1 μg/well of retro-inverso [RI], scrambled [SCR] or an irrelevant control peptide), blocked with gelatin and probed with 1 μg/ml of biotinylated Aβ peptide for 2 hours and streptavidin peroxidase for 1 hour. Experiments were repeated and were calculated as Mean±SE (N=2) and expressed as pmols Aβ^1-42/ml of binding solution. Graded concentrations of biotinylated Aβ^1-42 peptide (SEQ ID NO: 3) was used as a calibration standard.
(§2) Testing the binding and stability of biotinylated Aβ peptides in binding solution.

[2] = biological target: T2, biotinylated Aβ^1-40 peptide (Homo sapiens, UniProt P05067); experiment: Direct ELISA: plate-immobilised capture peptide probed with biotinylated Aβ1-40; format: binding; details: 1 μg/well capture peptide, 1 μg/ml biotinylated Aβ, 2 hours; compared with scrambled or irrelevant control peptide (FIG. 1a)
T2 construct: purchased
Experimental: as §1, §2

[3] = system: Aβ; details: AD model mice, after 1 day of treatment; cited from earlier work
[4] = biological target: Aβ (Homo sapiens, UniProt P05067); details: shortest fragment of Aβ1-40; cited from earlier work
[5] = biological target: Aβ fibril formation (Homo sapiens, UniProt P05067); details: microscopy; cited from earlier work
[6] = biological target: biotinylated Abeta 1-40 peptide; experiment: binding experiments with the gel, ELISA of the solution
Chain of biotinylated Abeta 1-40 peptide (peptide, as listed by the source): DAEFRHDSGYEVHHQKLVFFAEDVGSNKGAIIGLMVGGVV

Chain of Aβ (P05067 672-711 limits assumed): as the sequence (peptide, as listed by the source) above
T2 sequence (P05067 672-711): as the sequence (peptide, as listed by the source) above
Chain of Aβ (Homo sapiens, UniProt P05067) (P05067 672-711 limits assumed): as the sequence (peptide, as listed by the source) above
Chain of Aβ fibril formation (P05067 672-711 limits assumed): as the sequence (peptide, as listed by the source) above
T1 sequence (P05067 672-713): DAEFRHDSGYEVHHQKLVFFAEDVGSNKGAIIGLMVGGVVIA

## phe-phe-val-leu-lys-Cys ([dF][dF][dV][dL][dK][dC]; not fully specified (C-terminus); printed as phe-phe-val-leu-lys-cys) [RI peptide]
[1]
  binding of biotinylated Aβ^1-42 to immobilised peptide: significant and specific binding
[2]
  binding of biotinylated Aβ^1-40 to immobilised peptide: significant and specific binding

## gelsolin
[3]
  levels of Aβ in brain: reduced in half
  reduction of Aβ in brain: ~500 ng/g tissue

## KLVFF
[4]
  Aβ binding capacity: consistently high Aβ binding capacity
[5]
  effect on fibril formation in vitro: able to interfere with fibril formation

## GM1
[3]
  levels of Aβ in brain: reduced in half
  reduction of Aβ in brain: ~500 ng/g tissue

B1: detox gel (RI gel): retro-inverso peptide phe-phe-val-leu-lys-Cys linked by its cysteine thiol to a cross-linked 8-arm PEG hydrogel (peptide)
peptide: FFVLKC
modifications: not fully specified; composed of D-amino acids; Cys thiol linked to vinyl sulfone-PEG of the gel matrix; C-terminus amidated per the note to Table 1
[6]
  percent of possible binding in a 1:1 complex: 5%

Reference: patent publication US20070092508A1, “Detoxification depot for Alzheimer's disease” (Recombiant Technologies, LLC, priority 2005, published 2007)
